This is an account of results in article PMC10782944 (Science immunology, 2023).

Targets include PHOX2B/HLA-A*24:02/β2m (Homo sapiens, HLA-A*24:02, strain); ATG2A/HLA-A*24:02 (Homo sapiens, HLA-A*24:02, strain); GLB1 peptide/HLA-A*24:02 (Homo sapiens, HLA-A*24:02, strain).
What all share (assay): SPR
For assay [1], the target named is CNGB3 peptide/HLA-A*24:02 (Homo sapiens, HLA-A*24:02, strain).

B1: peptide-centric CAR (PC-CAR) 10LH, single-chain fragment variable (scFv) (scFv, V domains shown)
V domain 1: EVQLLESGGGLVQPGGSLRLSCAASGFTFDSYAMSWVRQAPGKGLEWVSAISGYGGSTYYADSVKGRFTISRDNSKNTLYLQMNSLRAEDTAVYYCAKYTYFLDAFDIWGQGTMVTVSS
V domain 2: QSVLTQPPSVSVSPGQTASITCSGDSLGNKYACWYQQKPGQSPVLVIYQDSKRPSGIPERFSGSNSGNTATLTISGTQAMDEADYYCQAWDSSRGYTVVFGTGTKVTVS
The term Kd denotes a measure of binding affinity in units of concentration. Regarding B1, the Kd with PHOX2B/HLA-A*24:02/β2m came out at 11 nM; in the assay with ATG2A/HLA-A*24:02, 1000 nM. The binding result (in assay [1]; in the assay with GLB1 peptide/HLA-A*24:02) was “binds” throughout.
